This assay deals with T1, full length αE-cat R551A (human, UniProt P35221 1-906, R551A).
T1 construct: αE-catenin (CTNNA1), human, full length, M3-domain salt-bridge mutant R551A; also called GST-αE-catenin (human) R551A
T1 sequence (looked up): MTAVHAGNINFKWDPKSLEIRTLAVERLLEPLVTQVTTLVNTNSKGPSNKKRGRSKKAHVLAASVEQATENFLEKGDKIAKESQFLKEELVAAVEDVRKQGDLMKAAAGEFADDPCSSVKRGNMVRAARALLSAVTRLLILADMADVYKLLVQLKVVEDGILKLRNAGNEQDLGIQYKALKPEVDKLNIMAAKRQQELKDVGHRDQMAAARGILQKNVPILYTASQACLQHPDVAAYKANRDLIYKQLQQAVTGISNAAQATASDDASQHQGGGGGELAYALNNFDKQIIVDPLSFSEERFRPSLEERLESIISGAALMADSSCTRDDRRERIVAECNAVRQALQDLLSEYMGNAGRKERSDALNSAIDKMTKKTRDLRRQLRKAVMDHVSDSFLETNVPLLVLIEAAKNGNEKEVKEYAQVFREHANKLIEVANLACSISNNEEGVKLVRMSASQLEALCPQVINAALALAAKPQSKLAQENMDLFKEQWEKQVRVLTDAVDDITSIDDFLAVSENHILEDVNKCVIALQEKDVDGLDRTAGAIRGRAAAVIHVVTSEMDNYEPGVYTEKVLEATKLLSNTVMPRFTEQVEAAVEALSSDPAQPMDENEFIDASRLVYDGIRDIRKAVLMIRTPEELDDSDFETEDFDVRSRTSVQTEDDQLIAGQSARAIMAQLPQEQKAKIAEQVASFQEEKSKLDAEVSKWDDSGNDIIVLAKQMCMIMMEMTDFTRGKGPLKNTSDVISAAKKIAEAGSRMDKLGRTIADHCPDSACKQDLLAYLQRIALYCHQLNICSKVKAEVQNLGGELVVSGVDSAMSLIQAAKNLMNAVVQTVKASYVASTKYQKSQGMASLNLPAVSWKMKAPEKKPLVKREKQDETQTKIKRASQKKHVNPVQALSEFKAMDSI
As to the kind of experiment: pull-down; GST-Afdn-CC-ABR (or GST control) pre-bound to glutathione resin, mixed with α-cat prey proteins, washed, eluted with free glutathione; interaction strength assessed by Coomassie staining. Particulars: both partners purified.

B1: GST-Afadin-Coiled-coil α-cat binding region (Afadin-CC-ABR; amino acids 1391–1449) (domain or fragment, rat)
chain: MDLPLPPPPANQAAPQSAQVAAAERKKREEHQRWYEKEKARLEEERERKRREQERKLGQ
notes: cDNA from the Takai lab; also called GST-Afadin-CC-ABR; GST-Afdn-CC-ABR; not shown: GST, N-terminal, kept
On to B1, for which the binding result is “binds”.

The values are drawn from publication doi:10.1101/2025.08.21.671625, “α-catenin phosphorylation is actomyosin-sensitive and required for epithelial barrier functions through Afadin” (bioRxiv, 2025).
